In patent publication US20140087995A1 (published 2014):
Numbered stars: 1 amine (or outer) side, 2 acyl side, 3 side chain; on linkers, the order of the positions; unused ones are H or OH. Bridge positions count the residues as written; N and C are the ends. Side chains are listed from the residue outwards. Ends that are not written are not given here. * marks the point of attachment. C20 diacid = O=C(O)CCCCCCCCCCCCCCCCCCC(=O)*; γGlu = O=C(O)[C@H](CCC(=O)[*:2])N[*:1]

T1: human calcitonin receptor (human, UniProt P30988 25-474)
T1 sequence (looked up): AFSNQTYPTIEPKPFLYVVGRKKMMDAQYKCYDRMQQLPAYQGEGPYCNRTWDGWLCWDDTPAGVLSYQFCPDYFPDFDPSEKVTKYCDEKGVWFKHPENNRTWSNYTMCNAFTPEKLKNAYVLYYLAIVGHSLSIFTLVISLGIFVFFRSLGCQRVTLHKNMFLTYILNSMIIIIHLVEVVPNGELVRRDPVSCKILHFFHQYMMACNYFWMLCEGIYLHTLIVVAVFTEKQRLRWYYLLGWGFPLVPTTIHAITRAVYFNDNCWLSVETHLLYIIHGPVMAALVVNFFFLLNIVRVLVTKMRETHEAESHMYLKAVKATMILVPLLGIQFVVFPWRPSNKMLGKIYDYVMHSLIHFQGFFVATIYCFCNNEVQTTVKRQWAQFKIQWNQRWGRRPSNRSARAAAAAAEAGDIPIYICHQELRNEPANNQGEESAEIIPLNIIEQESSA

T2: human amylin receptor (amylin 3(a) receptor: human calcitonin receptor plus RAMP-3) (human, UniProt P30988 25-474; O60896 24-148, limits assumed)
T2 sequence (looked up) 1: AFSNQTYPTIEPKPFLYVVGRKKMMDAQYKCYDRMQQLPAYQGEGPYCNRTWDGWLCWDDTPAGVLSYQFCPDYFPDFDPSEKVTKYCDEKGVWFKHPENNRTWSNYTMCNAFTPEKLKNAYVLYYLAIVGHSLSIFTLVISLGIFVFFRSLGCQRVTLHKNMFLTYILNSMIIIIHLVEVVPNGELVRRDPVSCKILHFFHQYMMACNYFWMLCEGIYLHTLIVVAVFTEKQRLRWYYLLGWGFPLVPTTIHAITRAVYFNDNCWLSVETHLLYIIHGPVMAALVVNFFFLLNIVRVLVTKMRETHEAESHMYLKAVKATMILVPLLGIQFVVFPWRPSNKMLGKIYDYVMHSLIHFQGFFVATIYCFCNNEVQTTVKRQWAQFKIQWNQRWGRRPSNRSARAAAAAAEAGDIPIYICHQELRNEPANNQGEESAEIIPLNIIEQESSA
T2 sequence (looked up) 2: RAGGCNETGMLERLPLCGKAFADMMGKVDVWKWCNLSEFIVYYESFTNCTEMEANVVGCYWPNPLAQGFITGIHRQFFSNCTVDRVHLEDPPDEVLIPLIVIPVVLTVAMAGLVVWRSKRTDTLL


How the values were obtained:
[1] = target: T1, human calcitonin receptor; assay: cell-based or functional assay
[2] = target: T2, human amylin receptor (amylin 3(a) …); assay: cell-based or functional assay

Row | Binder | Ratio hCT/hAmylin funct. (hCTR EC50 against hAmylin-R EC50) [1] | hCTR funct. EC50 [1] | hAmylin-R funct. EC50 [2]
1 | K([γGlu-C20 diacid])CNTATCATQRLANFLRHSSPNFGAIPSSTNVGSETY-NH2 (disulfide 2-7; N-terminus assumed; SMILES CC[C@H](C)[C@H](NC(=O)[C@H](C)NC(=O)CNC(=O)[C@H](Cc1ccccc1)NC(=O)[C@H](CC(N)=O)NC(=O)[C@@H]1CCCN1C(=O)[C@H](CO)NC(=O)[C@H](CO)NC(=O)[C@H](Cc1c[nH]cn1)NC(=O)[C@H](CCCNC(=N)N)NC(=O)[C@H](CC(C)C)NC(=O)[C@H](Cc1ccccc1)NC(=O)[C@H](CC(N)=O)NC(=O)[C@H](C)NC(=O)[C@H](CC(C)C)NC(=O)[C@H](CCCNC(=N)N)NC(=O)[C@H](CCC(N)=O)NC(=O)[C@@H](NC(=O)[C@H](C)NC(=O)[C@@H]1CSSC[C@H](NC(=O)[C@@H](N)CCCCNC(=O)CC[C@H](NC(=O)CCCCCCCCCCCCCCCCCCC(=O)O)C(=O)O)C(=O)N[C@@H](CC(N)=O)C(=O)N[C@@H]([C@@H](C)O)C(=O)N[C@@H](C)C(=O)N[C@@H]([C@@H](C)O)C(=O)N1)[C@@H](C)O)C(=O)N1CCC[C@H]1C(=O)N[C@@H](CO)C(=O)N[C@@H](CO)C(=O)N[C@H](C(=O)N[C@@H](CC(N)=O)C(=O)N[C@H](C(=O)NCC(=O)N[C@@H](CO)C(=O)N[C@@H](CCC(=O)O)C(=O)N[C@H](C(=O)N[C@@H](Cc1ccc(O)cc1)C(N)=O)[C@@H](C)O)C(C)C)[C@@H](C)O, also called compound 27) [N^ε1-[(4S)-4-carboxy-4-(19-carboxynonadecanoylamino)butanoyl]-[Arg17,Pro21,Pro27,Glu35]-h-amylin] | 22.6 | 3 nM | 0.133 nM
2 | K([γGlu-C20 diacid])CNTATCATQRLANFLRHSSPNFGAIPSSTNVGSKTY-NH2 (disulfide 2-7; N-terminus assumed; SMILES CC[C@H](C)[C@H](NC(=O)[C@H](C)NC(=O)CNC(=O)[C@H](Cc1ccccc1)NC(=O)[C@H](CC(N)=O)NC(=O)[C@@H]1CCCN1C(=O)[C@H](CO)NC(=O)[C@H](CO)NC(=O)[C@H](Cc1c[nH]cn1)NC(=O)[C@H](CCCNC(=N)N)NC(=O)[C@H](CC(C)C)NC(=O)[C@H](Cc1ccccc1)NC(=O)[C@H](CC(N)=O)NC(=O)[C@H](C)NC(=O)[C@H](CC(C)C)NC(=O)[C@H](CCCNC(=N)N)NC(=O)[C@H](CCC(N)=O)NC(=O)[C@@H](NC(=O)[C@H](C)NC(=O)[C@@H]1CSSC[C@H](NC(=O)[C@@H](N)CCCCNC(=O)CC[C@H](NC(=O)CCCCCCCCCCCCCCCCCCC(=O)O)C(=O)O)C(=O)N[C@@H](CC(N)=O)C(=O)N[C@@H]([C@@H](C)O)C(=O)N[C@@H](C)C(=O)N[C@@H]([C@@H](C)O)C(=O)N1)[C@@H](C)O)C(=O)N1CCC[C@H]1C(=O)N[C@@H](CO)C(=O)N[C@@H](CO)C(=O)N[C@H](C(=O)N[C@@H](CC(N)=O)C(=O)N[C@H](C(=O)NCC(=O)N[C@@H](CO)C(=O)N[C@@H](CCCCN)C(=O)N[C@H](C(=O)N[C@@H](Cc1ccc(O)cc1)C(N)=O)[C@@H](C)O)C(C)C)[C@@H](C)O, also called compound 35) [N^ε1-[(4S)-4-carboxy-4-(19-carboxynonadecanoylamino)butanoyl]-[Arg17,Pro21,Pro27,Lys35]-h-amylin] | 15 | 5.46 nM | 0.364 nM
3 | K([γGlu-γGlu-C20 diacid])CNTATCATQRLADFLRHSSPNFGAIPSSTNVGSDTY-NH2 (disulfide 2-7; N-terminus assumed; SMILES CC[C@H](C)[C@H](NC(=O)[C@H](C)NC(=O)CNC(=O)[C@H](Cc1ccccc1)NC(=O)[C@H](CC(N)=O)NC(=O)[C@@H]1CCCN1C(=O)[C@H](CO)NC(=O)[C@H](CO)NC(=O)[C@H](Cc1c[nH]cn1)NC(=O)[C@H](CCCNC(=N)N)NC(=O)[C@H](CC(C)C)NC(=O)[C@H](Cc1ccccc1)NC(=O)[C@H](CC(=O)O)NC(=O)[C@H](C)NC(=O)[C@H](CC(C)C)NC(=O)[C@H](CCCNC(=N)N)NC(=O)[C@H](CCC(N)=O)NC(=O)[C@@H](NC(=O)[C@H](C)NC(=O)[C@@H]1CSSC[C@H](NC(=O)[C@@H](N)CCCCNC(=O)CC[C@H](NC(=O)CC[C@H](NC(=O)CCCCCCCCCCCCCCCCCCC(=O)O)C(=O)O)C(=O)O)C(=O)N[C@@H](CC(N)=O)C(=O)N[C@@H]([C@@H](C)O)C(=O)N[C@@H](C)C(=O)N[C@@H]([C@@H](C)O)C(=O)N1)[C@@H](C)O)C(=O)N1CCC[C@H]1C(=O)N[C@@H](CO)C(=O)N[C@@H](CO)C(=O)N[C@H](C(=O)N[C@@H](CC(N)=O)C(=O)N[C@H](C(=O)NCC(=O)N[C@@H](CO)C(=O)N[C@@H](CC(=O)O)C(=O)N[C@H](C(=O)N[C@@H](Cc1ccc(O)cc1)C(N)=O)[C@@H](C)O)C(C)C)[C@@H](C)O, also called compound 2) | 16.4 | 3 nM | 0.182 nM
4 | {C20 diacid-γGlu}-KCNTATCATQRLAEFLRHSSPNFGAIPSSTNVGKNTY-NH2 (disulfide 2-7; SMILES CC[C@H](C)[C@H](NC(=O)[C@H](C)NC(=O)CNC(=O)[C@H](Cc1ccccc1)NC(=O)[C@H](CC(N)=O)NC(=O)[C@@H]1CCCN1C(=O)[C@H](CO)NC(=O)[C@H](CO)NC(=O)[C@H](Cc1c[nH]cn1)NC(=O)[C@H](CCCNC(=N)N)NC(=O)[C@H](CC(C)C)NC(=O)[C@H](Cc1ccccc1)NC(=O)[C@H](CCC(=O)O)NC(=O)[C@H](C)NC(=O)[C@H](CC(C)C)NC(=O)[C@H](CCCNC(=N)N)NC(=O)[C@H](CCC(N)=O)NC(=O)[C@@H](NC(=O)[C@H](C)NC(=O)[C@@H]1CSSC[C@H](NC(=O)[C@H](CCCCN)NC(=O)CC[C@H](NC(=O)CCCCCCCCCCCCCCCCCCC(=O)O)C(=O)O)C(=O)N[C@@H](CC(N)=O)C(=O)N[C@@H]([C@@H](C)O)C(=O)N[C@@H](C)C(=O)N[C@@H]([C@@H](C)O)C(=O)N1)[C@@H](C)O)C(=O)N1CCC[C@H]1C(=O)N[C@@H](CO)C(=O)N[C@@H](CO)C(=O)N[C@H](C(=O)N[C@@H](CC(N)=O)C(=O)N[C@H](C(=O)NCC(=O)N[C@@H](CCCCN)C(=O)N[C@@H](CC(N)=O)C(=O)N[C@H](C(=O)N[C@@H](Cc1ccc(O)cc1)C(N)=O)[C@@H](C)O)C(C)C)[C@@H](C)O, also called compound 36) | 6.8 | 1.28 nM | 0.189 nM
5 | KCNTATCATQRLAEFLRHSSPNFGAIPSSTNVGSNTY (C20 diacid-gGlu-2xOEG on the alpha amino group of the N-terminal residue; Cys2-Cys7 disulfide and C-terminal amide as in human amylin, also called compound 19) | 17.4 | 5.32 nM | 0.307 nM
6 | K([γGlu-C20 diacid])RCNTATCATQRLANFLRHSSPNFGAIPSSTNVGSHTY-NH2 (disulfide 3-8; N-terminus assumed; SMILES CC[C@H](C)[C@H](NC(=O)[C@H](C)NC(=O)CNC(=O)[C@H](Cc1ccccc1)NC(=O)[C@H](CC(N)=O)NC(=O)[C@@H]1CCCN1C(=O)[C@H](CO)NC(=O)[C@H](CO)NC(=O)[C@H](Cc1c[nH]cn1)NC(=O)[C@H](CCCNC(=N)N)NC(=O)[C@H](CC(C)C)NC(=O)[C@H](Cc1ccccc1)NC(=O)[C@H](CC(N)=O)NC(=O)[C@H](C)NC(=O)[C@H](CC(C)C)NC(=O)[C@H](CCCNC(=N)N)NC(=O)[C@H](CCC(N)=O)NC(=O)[C@@H](NC(=O)[C@H](C)NC(=O)[C@@H]1CSSC[C@H](NC(=O)[C@H](CCCNC(=N)N)NC(=O)[C@@H](N)CCCCNC(=O)CC[C@H](NC(=O)CCCCCCCCCCCCCCCCCCC(=O)O)C(=O)O)C(=O)N[C@@H](CC(N)=O)C(=O)N[C@@H]([C@@H](C)O)C(=O)N[C@@H](C)C(=O)N[C@@H]([C@@H](C)O)C(=O)N1)[C@@H](C)O)C(=O)N1CCC[C@H]1C(=O)N[C@@H](CO)C(=O)N[C@@H](CO)C(=O)N[C@H](C(=O)N[C@@H](CC(N)=O)C(=O)N[C@H](C(=O)NCC(=O)N[C@@H](CO)C(=O)N[C@@H](Cc1c[nH]cn1)C(=O)N[C@H](C(=O)N[C@@H](Cc1ccc(O)cc1)C(N)=O)[C@@H](C)O)C(C)C)[C@@H](C)O, also called compound 44) | 24 | 4.75 nM | 0.198 nM
7 | {C20 diacid-γGlu}-GRCNTATCATQRLANFLRHSSPNFGAIPSSTNVGSNTY-NH2 (disulfide 3-8; SMILES CC[C@H](C)[C@H](NC(=O)[C@H](C)NC(=O)CNC(=O)[C@H](Cc1ccccc1)NC(=O)[C@H](CC(N)=O)NC(=O)[C@@H]1CCCN1C(=O)[C@H](CO)NC(=O)[C@H](CO)NC(=O)[C@H](Cc1c[nH]cn1)NC(=O)[C@H](CCCNC(=N)N)NC(=O)[C@H](CC(C)C)NC(=O)[C@H](Cc1ccccc1)NC(=O)[C@H](CC(N)=O)NC(=O)[C@H](C)NC(=O)[C@H](CC(C)C)NC(=O)[C@H](CCCNC(=N)N)NC(=O)[C@H](CCC(N)=O)NC(=O)[C@@H](NC(=O)[C@H](C)NC(=O)[C@@H]1CSSC[C@H](NC(=O)[C@H](CCCNC(=N)N)NC(=O)CNC(=O)CC[C@H](NC(=O)CCCCCCCCCCCCCCCCCCC(=O)O)C(=O)O)C(=O)N[C@@H](CC(N)=O)C(=O)N[C@@H]([C@@H](C)O)C(=O)N[C@@H](C)C(=O)N[C@@H]([C@@H](C)O)C(=O)N1)[C@@H](C)O)C(=O)N1CCC[C@H]1C(=O)N[C@@H](CO)C(=O)N[C@@H](CO)C(=O)N[C@H](C(=O)N[C@@H](CC(N)=O)C(=O)N[C@H](C(=O)NCC(=O)N[C@@H](CO)C(=O)N[C@@H](CC(N)=O)C(=O)N[C@H](C(=O)N[C@@H](Cc1ccc(O)cc1)C(N)=O)[C@@H](C)O)C(C)C)[C@@H](C)O, also called compound 46) [N^-1-[(4S)-4-carboxy-4-(19-carboxynonadecanoylamino)butanoyl]-Gly[Arg1,Arg17,Pro21,Pro27]-h-amylin] | 10.2 | 0.899 nM | 0.088 nM
